The numbers were not newly measured in publication PMC10474648, “Design of chimeric GLP-1A using oligomeric bile acids to utilize transporter-mediated endocytosis for oral delivery” (Biomaterials Research, 2023), which cites them from elsewhere.

As usually defined, the Kd is the constant that tells how readily two partners part at equilibrium.

The conditions of data set [1]: cited from earlier work. An excerpt: Diabetes is a representative chronic disease that requires lifetime management. Because of the need for frequent and combination dosing, most hypoglycemic therapeutics are small molecule-based oral drugs.
For another data set, the target named is GLP-1R. Conditions: read-out: Kd, GLP-1R binding; cited from earlier work. The text has this: Cellular penetration may occur by two pathways: the paracellular and transcellular pathways. […] Additionally, ...

As to dulaglutide, the Half-life in data set [1] is 120 h. For the substance semaglutide, in data set [1], the Half-life is 170 h. In addition, the dissociation constant (Kd) on GLP-1R was 0.38 nM.
